± gives the uncertainty stated by the source.

This note sets out measurements from the supplement of paper PMC7877785.

A short description of the series: self-splicing fitness, log relative to wild type (ln ratio); higher = more splicing; Tetrahymena group I intron in knt gene, E. coli kanamycin selection, DiMSum; sequences stand for … in CUCUCU…GGAGGGAAAAGUUAUCAGGCAUGCACCUGGUAGCUAGUCUUUAAACCAAUAGAUUGCAUCGGUUUAAAAGGCAAGACCGUCAAAUUGCGGGAAAGGGGUCAACAGCCGUUCAGUACCAAGUCUCAGGGGAAACUUUGAGAUGGCCUUGCAAAGGGUAUGGUAAUAAGCUGACGGACAUGGUCCUAACCACGCAGCCAAGUCCUAAGUCAACAGAUCUUCUGUUGAUAUGGAUGCAGUUCACAGACUAAAUGUCGGUCGGGGAAGAUGUAUUCUUCUCAUAAGAUAUAGUCGGACCUCUCCUUAAUGGGAGCUAGCGGAUGAAGUGAUGCAACACUGGAGCCGCUGGGAACUAAUUUGUAUGCGAAAGUAUAUUGAUUAGUUUUGGAGUACUCGUGGUCG
In short, it runs like this: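 Six replicate transformations of E. coli BL21(DE3) with a pET-22b(+) library were grown overnight at 37°C or 30°C. The library randomised all eight P1ex-region intron nucleotides, the intron lying in the knt kanamycin-resistance gene, and plates were LB agar with or without 25 μg/mL kanamycin plus 100 μg/mL carbenicillin, 50 μM IPTG and 0.2% rhamnose. Pooled colonies were amplicon-sequenced on an Illumina HiSeq 2500, and fitness is the DiMSum error-weighted combination of wild-type-normalised replicate fold changes, kanamycin versus none.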

For AGGGAGCAAUAUUACGCGAA, the “self-splicing fitness (ln)” value is -1.94 ± 0.4 (30 °C) and -1.48 ± 0.29 (37 °C).
As for UUCGAGCAAUAUUACGUUUA, the “self-splicing fitness (ln)” value was -2 ± 0.16 (30 °C) and -1.54 ± 0.16 (37 °C).
With CGAAAGCAAUAUUACGUUAA, the “self-splicing fitness (ln)” value reads like this: (30 °C) -2.27 ± 0.15; (37 °C) -1.42 ± 0.12.
In the case of GAGAAGCAAUAUUACGCCCU, the “self-splicing fitness (ln)” value runs as follows: (30 °C) -0.493 ± 0.16; (37 °C) 0.146 ± 0.18.
Take UCAAAGCAAUAUUACGAUCU: the “self-splicing fitness (ln)” value reads like this: (30 °C) -2.82 ± 0.13; (37 °C) -0.778 ± 0.12.
For GGGGAGCAAUAUUACGCCAA, the “self-splicing fitness (ln)” value (37 °C) was -0.647 ± 0.44.
Take AGAUAGCAAUAUUACGGUGU: the “self-splicing fitness (ln)” value reads like this: (30 °C) -2.01 ± 0.096; (37 °C) -1.15 ± 0.1.
Turning to CAGGAGCAAUAUUACGAUCG, the “self-splicing fitness (ln)” value reads like this: (30 °C) -0.865 ± 0.08; (37 °C) 0.258 ± 0.1.
Taken in the same sequence, the figures for UACCAGCAAUAUUACGCUCC were -1.12 ± 0.18 and -0.501 ± 0.2.
Taken in the same sequence, the figures for ACUGAGCAAUAUUACGACGG were -1.08 ± 0.1 and -0.161 ± 0.13.
Take CAACAGCAAUAUUACGGGGA: the “self-splicing fitness (ln)” value is, setting by setting: (30 °C) -2.24 ± 0.093; (37 °C) -2.14 ± 0.11.
As for CGGUAGCAAUAUUACGAGCG, the “self-splicing fitness (ln)” value is, setting by setting: (30 °C) -0.978 ± 0.19; (37 °C) -0.291 ± 0.14.
On to GAAAAGCAAUAUUACGAAUA, for which the “self-splicing fitness (ln)” value (30 °C) is -1.57 ± 0.13 and the “self-splicing fitness (ln)” value (37 °C) is -1.19 ± 0.1.
With UUUCAGCAAUAUUACGAACA, the “self-splicing fitness (ln)” value is, setting by setting: (30 °C) -0.771 ± 0.13; (37 °C) 0.793 ± 0.22.
Taken in the same sequence, the figures for GGACAGCAAUAUUACGUGAU were -0.212 ± 0.061 and -0.0525 ± 0.078.
Taken in the same sequence, the figures for GACGAGCAAUAUUACGUUAA were -3.77 ± 0.27 and -2.79 ± 0.25.
The like results for GAAUAGCAAUAUUACGCGUC were, in that order, -1.98 ± 0.23 and 0.15 ± 0.32.
Regarding AGUGAGCAAUAUUACGGCUU, the “self-splicing fitness (ln)” value reads like this: (30 °C) -2.43 ± 0.17; (37 °C) -1.72 ± 0.25.
AUCAAGCAAUAUUACGCACU: the “self-splicing fitness (ln)” value reads like this: (30 °C) -0.00274 ± 0.081; (37 °C) 0.0749 ± 0.097.
Taken in the same sequence, the figures for UUUAAGCAAUAUUACGAUGG were -1.05 ± 0.11 and -0.525 ± 0.14.
The like results for UGCUAGCAAUAUUACGAAAU were, in that order, -3.79 ± 0.4 and -1.67 ± 0.36.
GUACAGCAAUAUUACGAAGU: the “self-splicing fitness (ln)” value (30 °C) was -3.32 ± 0.17 and the “self-splicing fitness (ln)” value (37 °C) was -1.67 ± 0.18.
On to GUCGAGCAAUAUUACGAAUG, for which the “self-splicing fitness (ln)” value was -4.06 ± 0.35 (30 °C) and -0.777 ± 0.2 (37 °C).
As for CGUUAGCAAUAUUACGAGGU, the “self-splicing fitness (ln)” value is, setting by setting: (30 °C) -4.3 ± 0.29; (37 °C) -2.49 ± 0.23.
In the case of AGCAAGCAAUAUUACGCAAC, where the note is “30 °C”, the “self-splicing fitness (ln)” value was -3.99 ± 0.31.
With GCCCAGCAAUAUUACGGUCA, the “self-splicing fitness (ln)” value is -0.8 ± 0.071 (30 °C) and -0.326 ± 0.074 (37 °C).
The like results for GGUUAGCAAUAUUACGGUAU were, in that order, -1.55 ± 0.11 and -0.531 ± 0.11.
The like results for GACGAGCAAUAUUACGUUAG were, in that order, -3.02 ± 0.17 and -2.56 ± 0.19.
Regarding AUCAAGCAAUAUUACGUUUU, the “self-splicing fitness (ln)” value is, setting by setting: (30 °C) -1.6 ± 0.097; (37 °C) -0.791 ± 0.12.
Turning to CGGGAGCAAUAUUACGCGUU, the “self-splicing fitness (ln)” value (30 °C) was -1.22 ± 0.23.
Turning to CCCAAGCAAUAUUACGGGAU, the “self-splicing fitness (ln)” value was -3.41 ± 0.096 (30 °C) and -2.47 ± 0.12 (37 °C).
Regarding UACGAGCAAUAUUACGGUCC, where the note is “30 °C”, the “self-splicing fitness (ln)” value is -3.61 ± 0.43.
For the sequence GGAAAGCAAUAUUACGCUCU, the “self-splicing fitness (ln)” value (30 °C) is -3.11 ± 0.33.
Regarding AUACAGCAAUAUUACGCGCU, the “self-splicing fitness (ln)” value runs as follows: (30 °C) -0.631 ± 0.094; (37 °C) 0.0173 ± 0.12.
Taken in the same sequence, the figures for AGACAGCAAUAUUACGGCCA were -1.28 ± 0.11 and -0.142 ± 0.11.
Regarding CAUUAGCAAUAUUACGCGUC, the “self-splicing fitness (ln)” value by setting is: (30 °C) -2.64 ± 0.29; (37 °C) -2.01 ± 0.26.
The like results for UUUAAGCAAUAUUACGACUA were, in that order, 0.0508 ± 0.11 and -0.0992 ± 0.096.
Taken in the same sequence, the figures for GGCUAGCAAUAUUACGUGAG were -1.21 ± 0.087 and -0.194 ± 0.092.
The like results for GCACAGCAAUAUUACGCCAU were, in that order, -3.37 ± 0.12 and -2.42 ± 0.12.
As to UUGCAGCAAUAUUACGGGAU, the “self-splicing fitness (ln)” value by setting is: (30 °C) -3.42 ± 0.17; (37 °C) -1.68 ± 0.12.
In the case of CGUAAGCAAUAUUACGUGAA, the “self-splicing fitness (ln)” value (30 °C) is -3.19 ± 0.14 and the “self-splicing fitness (ln)” value (37 °C) is -1.61 ± 0.15.
As to CCAAAGCAAUAUUACGGUGG, the “self-splicing fitness (ln)” value is -4.1 ± 0.19 (30 °C) and -1.76 ± 0.16 (37 °C).
Turning to CUGAAGCAAUAUUACGCCUA, the “self-splicing fitness (ln)” value by setting is: (30 °C) -3.82 ± 0.24; (37 °C) -3.63 ± 0.33.
The like results for UAGAAGCAAUAUUACGAGUA were, in that order, -1.31 ± 0.096 and -0.33 ± 0.12.
Taken in the same sequence, the figures for AAUCAGCAAUAUUACGGGUU were -2.48 ± 0.12 and -2.02 ± 0.13.
On to AGGAAGCAAUAUUACGCACA, for which the “self-splicing fitness (ln)” value reads like this: (30 °C) -0.546 ± 0.13; (37 °C) 0.104 ± 0.19.
UUCCAGCAAUAUUACGGAUU: the “self-splicing fitness (ln)” value reads like this: (30 °C) -1.9 ± 0.11; (37 °C) -1.01 ± 0.12.
Regarding UGUUAGCAAUAUUACGGUCC, for the setting “30 °C”, the “self-splicing fitness (ln)” value was -2.6 ± 0.38.
Take UAUCAGCAAUAUUACGAUUA: the “self-splicing fitness (ln)” value reads like this: (30 °C) 0.023 ± 0.072; (37 °C) 0.233 ± 0.087.
The like results for UCGUAGCAAUAUUACGGUUU were, in that order, -3.44 ± 0.14 and -1.37 ± 0.11.
Taken in the same sequence, the figures for CGACAGCAAUAUUACGUCGC were -3.71 ± 0.25 and -3.74 ± 0.33.
The like results for ACGGAGCAAUAUUACGGGCC were, in that order, -2.53 ± 0.48 and -1.06 ± 0.4.
In the case of GGGCAGCAAUAUUACGUCCA, the “self-splicing fitness (ln)” value by setting is: (30 °C) -1.17 ± 0.23; (37 °C) -1.01 ± 0.28.
The like results for CUAUAGCAAUAUUACGUUAU were, in that order, -3.27 ± 0.21 and -2.38 ± 0.32.
As for AUAAAGCAAUAUUACGGAAU, the “self-splicing fitness (ln)” value is, setting by setting: (30 °C) -1.16 ± 0.077; (37 °C) -0.475 ± 0.1.
Taken in the same sequence, the figures for CGCAAGCAAUAUUACGAGUG were -1.99 ± 0.057 and -1.72 ± 0.084.
Regarding UACAAGCAAUAUUACGGUGU, the “self-splicing fitness (ln)” value (30 °C) was -3.91 ± 0.17 and the “self-splicing fitness (ln)” value (37 °C) was -1.71 ± 0.12.
The like results for GUCCAGCAAUAUUACGAUGG were, in that order, -3.74 ± 0.16 and -3.37 ± 0.25.
Consider GCGUAGCAAUAUUACGUCCU, for which the “self-splicing fitness (ln)” value by setting is: (30 °C) -1.47 ± 0.14; (37 °C) -0.8 ± 0.15.
For the sequence UGGGAGCAAUAUUACGGUGU, the “self-splicing fitness (ln)” value was -2.52 ± 0.45 (30 °C) and -1.9 ± 0.37 (37 °C).
Consider GAAUAGCAAUAUUACGAAGG, for which, under “30 °C”, the “self-splicing fitness (ln)” value was -2.77 ± 0.27.
With ACCCAGCAAUAUUACGACUC, the “self-splicing fitness (ln)” value by setting is: (30 °C) -0.5 ± 0.061; (37 °C) -0.482 ± 0.079.
The like results for CUGUAGCAAUAUUACGUAAC were, in that order, -3.09 ± 0.46 and -2.24 ± 0.5.
The like results for UGUAAGCAAUAUUACGACUA were, in that order, 0.00851 ± 0.12 and 0.0364 ± 0.14.
Taken in the same sequence, the figures for CCUAAGCAAUAUUACGCGCU were -2.38 ± 0.22 and -2.75 ± 0.3.
In the case of GUGAAGCAAUAUUACGUUGC, the “self-splicing fitness (ln)” value (37 °C) is -1.92 ± 0.46.
For AGGAAGCAAUAUUACGGGCA, the “self-splicing fitness (ln)” value (30 °C) is -1.55 ± 0.21 and the “self-splicing fitness (ln)” value (37 °C) was -1.13 ± 0.23.
The like results for CGUGAGCAAUAUUACGGUAC were, in that order, -3.78 ± 0.35 and -1.63 ± 0.31.
Taken in the same sequence, the figures for AUCAAGCAAUAUUACGCGGC were -3.39 ± 0.33 and -1.98 ± 0.29.
On to CGUUAGCAAUAUUACGCCAA, for which the “self-splicing fitness (ln)” value (30 °C) was -1.97 ± 0.45.
Take GAGUAGCAAUAUUACGCACA: the “self-splicing fitness (ln)” value is, setting by setting: (30 °C) -0.806 ± 0.14; (37 °C) -0.0514 ± 0.18.
The like results for CACCAGCAAUAUUACGCGCA were, in that order, -2.03 ± 0.084 and -1.51 ± 0.085.
As for UCUAAGCAAUAUUACGGCCA, the “self-splicing fitness (ln)” value was -1.21 ± 0.22 (30 °C) and -1.17 ± 0.21 (37 °C).
The like results for GUCAAGCAAUAUUACGACAA were, in that order, -3.81 ± 0.4 and -2.58 ± 0.27.
As to UGGCAGCAAUAUUACGAACC, the “self-splicing fitness (ln)” value (30 °C) was -1.66 ± 0.15 and the “self-splicing fitness (ln)” value (37 °C) was -0.775 ± 0.2.
For the sequence UCAAAGCAAUAUUACGUCUA, the “self-splicing fitness (ln)” value is -1.92 ± 0.1 (30 °C) and -0.787 ± 0.098 (37 °C).
Taken in the same sequence, the figures for UUUCAGCAAUAUUACGUCAA were -1.19 ± 0.1 and -0.056 ± 0.097.
In the case of AAUAAGCAAUAUUACGCUAA, the “self-splicing fitness (ln)” value is -2.46 ± 0.16 (30 °C) and -0.891 ± 0.13 (37 °C).
